Here are results for two proteins from paper PMC1839085, “Crystal structures of an Extracytoplasmic Solute Receptor from a TRAP transporter in its open and closed forms reveal a helix-swapped dimer requiring a cation for α-keto acid binding” (BMC Structural Biology, 2007).

Where only a bound is given, the exact number is not on record here.

Series [1] deals with the molecule itself. Put plainly: crystal structure; unliganded SeMet TakP, space group P2(1), four molecules in the asymmetric unit; hanging drop, 293 K, 100 mM sodium citrate pH 5.8-6.0, 1.4-1.6 M ammonium sulfate; solved by MAD.
Series [2] concerns the molecule itself. Put plainly: SEC; gel filtration on Superdex 200 26/60 in 20 mM Tris HCl pH 8.0, 50 mM NaCl, calibrated with commercial standards. For orientation: Size exclusion chromatography separates by hydrodynamic size, large species first.
Series [3] deals with the molecule itself. Put plainly: cross-linking; 3.2 and 6.3 μM TakP with 50 mM glutaraldehyde, 20 mM Na2HPO4/KH2PO4 pH 7.8, 18°C, 3 hours; denaturing 10% Nu-PAGE gel; dimer to monomers.

B1: Selenomethionine-labeled TakP from Rhodobacter sphaeroides (natural protein, Rhodobacter sphaeroides 2.4.1)
chain: QSAPKVTWRLASSFPKSLDTIFGGAEVLSKMLSEATDGNFQIQVFSAGELVPGLQAADAVTEGTVECCHTVGYYYWGKDPTFALAAAVPFSLSARGINAWHYHGGGIDLYNEFLSQHNIVAFPGGNTGVQMGGWFRREINTVADMQGLKMRVGGFAGKVMERLGVVPQQIAGGDIYPALEKGTIDATEWVGPYDDEKLGFFKVAPYYYYPGWWEGGPTVHFMFNKSAYEGLTPTYQSLLRTACHAADANMLQLYDWKNPTAIKSLVAQGTQLRPFSPEILQACFEAANEVYAEMEASNPAFKKIWDSIKAFRSEHYTWAQIAEYNYDTFMMVQQNAGKL
modifications: selenomethionine (SeMet) labeled
notes: TakP (previously named SmoM), Rhodobacter sphaeroides 2.4.1; same construct as m1 (pET101/D-TOPO, 1099 bp fragment), labeled with selenomethionine; final model holds four molecules from residue 28 or 32 to 365; Same construct as m1, with methionines replaced by selenomethionine; used for the unliganded MAD structure (PDB 2HZK); also called SeMet TakP; selenomethionine labeled protein; source: E. …
Regarding B1, the binding result in series [1] is recorded as “binds”.

B2: TakP (TRAP transporter alpha-keto acid binding P subunit) from Rhodobacter sphaeroides (natural protein, Rhodobacter sphaeroides 2.4.1)
chain: B1 chain
notes: TakP (previously named SmoM), extracytoplasmic solute receptor (P subunit) of a TRAP transporter, Rhodobacter sphaeroides 2.4.1; gene amplified from genomic DNA as a 1099 bp fragment and cloned into pET101/D-TOPO; crystal models span residues 28 or 32 to 365; The 1099 bp fragment would fit the whole gene of 365 codons, so the signal peptide may be in the construct; The theoretical molecular …
Broadly, the stoichiometry N is the number of molecules, sites or subunits per partner or assembly. The Kd is the constant that tells how readily two partners part at equilibrium. A lower Kd goes with a tighter complex. As to B2, the “stoichiometry N” value in series [2] came out at 2. Besides, the dissociation constant Kd in series [3] is less than 300 nM.
